Test results: article PMC6786517

Target: F-actin
Assay: co-sedimentation; F-actin co-sedimentation of HA-cortactin WT, 8KQ and 8KR; gray values of cortactin in pellets and supernatants

## HA-tagged acetylation-mimetic cortactin (8KQ) (from UniProt Q60598 1-546) (natural protein)
  ratio of gray value of cortactin in pellets and supernatants: 0.781

## HA-tagged cortactin (from UniProt Q60598 1-546) (natural protein)
  ratio of gray value of cortactin in pellets and supernatants: 1.03

## HA-tagged non-acetylation-mimetic cortactin (8KR) (from UniProt Q60598 1-546) (natural protein)
  ratio of gray value of cortactin in pellets and supernatants: 1.59
